Assay results: article PMC5262380, “Structural insights into the mechanism of the DEAH-box RNA helicase Prp43” (eLife, 2017)
Residue numbers refer to the chain shown, from its start. In names and notes the source's numbering stands.

How the values were obtained:
[1] = substrate: Nc1ncnc2c1ncn2[C@@H]1O[C@H](COP(=O)(O)OP(=O)(O)OP(=O)(O)O)[C@@H](O)[C@H]1O; experiment: NADH-coupled ATPase assay (pyruvate kinase / lactate dehydrogenase); type: biochemical, Thermochaetoides thermophila; settings: no RNA, ctPfa1-GP in five-fold excess, pH 7.5, 150 mM KCl, 3 mM MgCl2, 25 °C
Text: NADH-coupled ATPase assay (pyruvate kinase / lactate dehydrogenase) on ctPrp43 + ctPfa1-GP

[2] = substrate: Nc1ncnc2c1ncn2[C@@H]1O[C@H](COP(=O)(O)OP(=O)(O)OP(=O)(O)O)[C@@H](O)[C@H]1O; experiment: as above; type: biochemical, Thermochaetoides thermophila; settings: no RNA, no G-patch, pH 7.5, 150 mM KCl, 3 mM MgCl2, 25 °C
Text: NADH-coupled ATPase assay (pyruvate kinase / lactate dehydrogenase) on ctPrp43

[3] = ctPrp43-IDSB, mainly oxidized (internal disulfide bond)

B1: ctPrp43 + ctPfa1-GP (Thermochaetoides thermophila DSM 1495; F181C/N623C) (protein)
chain: MADITKGTKRLSGEAEGSQDSKRVKTNGDKMDAKNPYLAHLEEKPEADFESLLDKLERRNTTAKQAEAVEDSDINPWTGQRHSERYFKILKARRKLPVNKQRQEFLDLYHNNQILVFVGETGSGKTTQIPQYVLYDELPHQTGKLIACTQPRRVAAMSVAQRVADELDVKLGEEVGYSIRCENKTSSKTLLKYMTDGQLLREAMHDRDMSRYSCIILDEAHERTLATDILMALLKQLSERRKDLKIIVMSATLDAQKFQSYFFNAPLLAVPGRTHPVEIFYTPEAERDYVEAAIRTVLQIHACEPEGDILLFLTGEEEIEDACRRISLEVDEMIRESDAGPMSVYPLYGTLPPHQQQRIFEKAPQPFRPGGRPGRKCIVATNIAETSLTIDGIVYVVDPGFSKQKIYNPRTRVESLLVSPISKASAQQRAGRAGRTRPGKCFRLYTEEAFKKELIEQTYPEILRSNLSNTVLELKKLGVEDLVHFDLMDPPAPETMMRALEELNYLACLDDDGELTPLGNLASEFPLDPALAVMLISSPEFYCSNEILSITSLLSVPQIWVRPANARKRADEMKAQFAHPDGDHLTLLNAYHAYKGAEARGEDMKKWCHEHFLSYRHLSSADCVRAQLKKIMETHGIELVSTPFHDKNYYTNIRRALLAGFFMQVAMRESSNSKVYKTVKDEQLVLIHPSTTVTTPYEWVVYNEFVLTTKQYVRTVTNIRPEWLLEIAPVYYDLSTFQKGEIKNALTRVAEKIRRQQAMKASKA
notes: full-length Prp43 (GST tag removed) plus G-patch fragment ctPfa1(662-742) in five-fold excess, both recombinant, tags cut; with Uncharacterized protein (G-patch protein Pfa1)
Km [1, 3]: 29.04 ± 1.35 µM
kcat [1, 3]: 3.32 s⁻¹

B2: ctPrp43 (Thermochaetoides thermophila DSM 1495; F181G/R180G/T350G/Y348G) (protein)
chain: B1 chain with R180G, C181G, Y348G, T350G, C623N
notes: full length (residues 1-764), recombinant, GST tag removed, expressed as previously described
Km ([2]; ctPrp43-HT&HL): 16.72 ± 1.49 µM
kcat ([2]; ctPrp43-HT&HL): 0.127 s⁻¹

B3: ctPrp43 (Thermochaetoides thermophila DSM 1495; F181C/N623C) (protein)
chain: B1 chain
notes: as for B2
Km [2, 3]: 16.23 ± 2.38 µM
kcat [2, 3]: 0.084 s⁻¹

B4: ctPrp43 (Thermochaetoides thermophila DSM 1495; T350G/Y348G) (protein)
chain: B1 chain with C181F, Y348G, T350G, C623N
notes: as for B2
Km ([2]; ctPrp43-HL): 14.31 ± 0.71 µM
kcat ([2]; ctPrp43-HL): 0.103 s⁻¹

B5: ctPrp43 + ctPfa1-GP (Thermochaetoides thermophila DSM 1495; T350G/Y348G) (protein)
chain: B1 chain with C181F, Y348G, T350G, C623N
notes: as for B1
Km ([1]; ctPrp43-HL): 14.38 ± 0.89 µM
kcat ([1]; ctPrp43-HL): 1.44 s⁻¹

B6: ctPrp43 + ctPfa1-GP (Thermochaetoides thermophila DSM 1495; F181G/R180G/T350G/Y348G) (protein)
chain: B1 chain with R180G, C181G, Y348G, T350G, C623N
notes: as for B1
Km ([1]; ctPrp43-HT&HL): 25.17 ± 1.37 µM
kcat ([1]; ctPrp43-HT&HL): 1.89 s⁻¹
